Source: IntAct's records for PubMed 22187461

B1: 26S proteasome non-ATPase regulatory subunit 11 (Drosophila melanogaster (Fruit fly)), Q7KLV9-1 (parent)
chain: MAGATLFERAQALSSVNREEQDSSLLNKLVRDQEGAENDEERIRIKEQGILQQGELYKQEGKAKELADLIKVTRPFLSSISKAKAAKLVRSLVDMFLDMDAGTGIEVQLCKDCIEWAKQEKRTFLRQSLEARLIALYFDTALYTEALALGAQLLRELKKLDDKNLLVEVQLLESKTYHALSNLPKARAALTSARTTANAIYCPPKVQGALDLQSGILHAADERDFKTAFSYFYEAFEGFDSVDSVKALTSLKYMLLCKIMLGQSDDVNQLVSGKLAITYSGRDIDAMKSVAEASHKRSLADFQAALKEYKKELAEDVIVQAHLGTLYDTMLEQNLCRIIEPYSRVQVAHVAESIQLPMPQVEKKLSQMILDKKFSGILDQGEGVLIVFEETPVDKTYERVLETIQSMGKVVDTLYQKAKKLS
partner: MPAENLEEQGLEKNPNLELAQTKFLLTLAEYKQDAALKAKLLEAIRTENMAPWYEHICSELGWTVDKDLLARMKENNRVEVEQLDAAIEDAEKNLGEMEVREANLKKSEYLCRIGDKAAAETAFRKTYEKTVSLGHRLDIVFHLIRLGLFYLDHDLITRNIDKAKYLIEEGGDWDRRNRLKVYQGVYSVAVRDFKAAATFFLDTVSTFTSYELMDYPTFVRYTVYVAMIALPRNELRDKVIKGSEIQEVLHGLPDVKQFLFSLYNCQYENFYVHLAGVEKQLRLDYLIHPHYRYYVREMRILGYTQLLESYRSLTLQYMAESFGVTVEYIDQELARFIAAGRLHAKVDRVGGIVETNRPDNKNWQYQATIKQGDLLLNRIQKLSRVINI

Variants of: B1
Conditions: with psmd6_drome Rpn7, Q9V3G7

| Variant | effect of a mutation on the interaction |
| --- | --- |
| MAGATLFERAQALSSVNREEQDSSLLNKLVRDQEGAENDEERIRIKEQGILQQGELYKQEGKAKELADLIKVTRPFLSSISKAKAAKLVRSLVDMFLDMDAGTGIEVQLCKDCIEWAKQEKRTFLRQSLEARLIALYFDTALYTEALALGAQLLRELKKLDDKNLLVEVQLLESKTYHALSNLPKARAALTSARTTANAIYCPPKVQGALDLQSGILHAADERDFKTAFSYFYEAFEGFDSVDSVKALTSLKYMLLCKIMLGQSDDVNQLVSGKLAITYSGRDIDAMKSVAEASHKRSLADFQAALKEYKKELAEDVIVQAHLGTLYDTMLEQNLCRIIEPYSRVQVAHVAESIQLPMPQVEKKLKQMAADKKFSGILDQGEGVLIVFEETPVDKTYERVLETIQSMGKVVDTLYQKAKKLS [S366K;I369A;L370A] | disrupting interaction strength |
